We go through one molecule from paper PMC10247153, “Chromatin Sensing by the Auxiliary Domains of KDM5C Regulates Its Demethylase Activity and Is Disrupted by X-linked Intellectual Disability Mutations”.

The data set deals with T1, KDM5C ARID (Homo sapiens, UniProt P41229 73-188).
T1 sequence: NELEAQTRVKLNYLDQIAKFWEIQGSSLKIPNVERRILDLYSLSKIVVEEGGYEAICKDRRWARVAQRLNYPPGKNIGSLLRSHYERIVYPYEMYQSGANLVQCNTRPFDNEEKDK
Nature of the data set: EMSA; apparent Kd; EMSA: 50 mM HEPES pH 7.5, 50 mM KCl, 1 mM BME, 0.01% Tween-20, 0.01% BSA, 5% sucrose, 1 h on ice; 100 nM nucleosome or 147 bp DNA, 500 nM 20 bp DNA; gel at 4 C. As to conditions: protein: recombinant; tags: 6xHis-SUMO cleaved. For orientation: A gel shift assay detects complexes by their altered migration in electrophoresis.

B1: 5' flanking (linker) DNA 20 bp (dsDNA)
DNA 1: GGACCCTATACGCGGCCGCC
DNA 2: GGCGGCCGCGTATAGGGTCC
Regarding B1, the Kd amounted to 9.9 ± 0.4 µM.
